From patent US20230058519A1 (SHANGHAI CELL THERAPY GROUP, published 2023) come the findings set out here.

Test [1] concerns the target mesothelin (MSLN) expressed on cells (UniProt Q13421). Nature of the test: flow cytometry on 293T-MSLN+ cells; unit taken from the axis 'Conc.(nM)'.
Test [2] has the same target. Nature of the test: flow cytometry on HEK293T-MSLN cells, serial dilution, anti-human IgG PE detection.
Test [3] deals with T1, MSLN-His antigen (UniProt Q13421 296-580, limits assumed).
T1 construct: also called MSLN-His protein; MSLN antigen
T1 sequence (Q13421 other isoform, or with tags, fused parts or gaps limits assumed): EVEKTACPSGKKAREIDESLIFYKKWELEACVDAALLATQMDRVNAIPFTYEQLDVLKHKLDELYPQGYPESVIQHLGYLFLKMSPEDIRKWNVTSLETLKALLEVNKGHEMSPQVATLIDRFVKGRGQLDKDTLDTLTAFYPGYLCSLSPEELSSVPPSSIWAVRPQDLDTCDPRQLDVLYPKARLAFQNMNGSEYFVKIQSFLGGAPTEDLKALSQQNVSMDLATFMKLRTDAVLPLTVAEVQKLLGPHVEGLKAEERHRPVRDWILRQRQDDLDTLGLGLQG
The test is described as follows: SPR (Biacore), VHH-hFc captured on protein A chip, MSLN-His as analyte. On the procedure: The antibody was expressed as a hFc fusion protein, named as M2339(VHH) with the procedure that was described in the patent publication WO2020176815A2 (hereby incorporated by reference in its entirety and for all purposes). The binding affinity of M2339(VHH) towards MSLN antigen was tested by surface plasmon resonance (SPR). First, M2339(VHH) was passed through the sensor chip with protein A immobilized in advance, and the antibody was captured by protein A. Then, five different concentrations of MSLN-His protein were used as the mobile phase, and the binding time and dissociation time were 30 min and 60 min, respectively. Biacore evaluation software 2.0 (GE) was used to analyze the on-rate (kₒₙ), off-rate (koff) and equilibrium constant (KD).

Another test addresses T2, MSLN I + II - Fc (UniProt Q13421 296-486, limits assumed).
T2 construct: domain: MSLN I + II; not shown: human Fc
Nature of the test: SPR, MSLN domain-Fc captured on protein A chip, M2339 VHH-6his as analyte, 1:1 fit. Here is the method:
(§1) Affinity was determined by SPR. Protein A chip was used to capture different antigens, various concentrations of M2339(VHH) were injected at a flow rate of 10 μl/min with an association time of 120 to 180 seconds and a dissociation time from 180 to 1200 seconds. Binding kinetics were determined using Biacore Evaluation software in a 1:1 fit model.

A further test has as its target T3, MSLN I - Fc (UniProt Q13421 296-390, limits assumed).
T3 construct: domain: MSLN I; also called mesothelinI; not shown: human Fc
The description is as above. Here is the method:
as §1

The target of another test is T4, MSLN II + III - Fc (Homo sapiens (Human), UniProt Q13421 391-598).
T4 construct: also called mesothelinII+III; mesothelinII+III domain; not shown: human Fc
T4 sequence (Q13421 other isoform, or with tags, fused parts or gaps limits assumed): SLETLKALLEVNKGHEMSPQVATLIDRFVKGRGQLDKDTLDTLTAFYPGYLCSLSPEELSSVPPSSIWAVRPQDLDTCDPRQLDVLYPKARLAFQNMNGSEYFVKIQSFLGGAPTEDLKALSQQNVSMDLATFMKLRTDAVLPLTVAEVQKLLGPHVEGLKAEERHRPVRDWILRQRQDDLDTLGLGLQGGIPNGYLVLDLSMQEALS
The test is described as above. On the procedure:
as §1

Another test concerns the target T5, MSLN II - Fc (UniProt Q13421 391-486, limits assumed).
T5 construct: domain: MSLN II; not shown: human Fc
The test is described as above. Here is the method: as §1

The target in another test is T6, MSLN III - Fc (UniProt Q13421 487-598, limits assumed).
T6 construct: domain: MSLN III; not shown: human Fc
T6 sequence (Q13421 495-606 limits assumed): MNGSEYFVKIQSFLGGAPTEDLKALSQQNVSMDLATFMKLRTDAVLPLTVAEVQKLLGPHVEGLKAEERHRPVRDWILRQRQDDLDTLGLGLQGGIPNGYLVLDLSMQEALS
Described as above. On the procedure:
as §1

In a further test the target is T7, MSLN Full - Fc (UniProt Q13421 296-598, limits assumed).
T7 construct: domain: MSLN Full (mesothelin ECD); also called mesothelin-full; complete mesothelin polypeptide; not shown: human Fc
T7 sequence (Q13421 other isoform, or with tags, fused parts or gaps limits assumed): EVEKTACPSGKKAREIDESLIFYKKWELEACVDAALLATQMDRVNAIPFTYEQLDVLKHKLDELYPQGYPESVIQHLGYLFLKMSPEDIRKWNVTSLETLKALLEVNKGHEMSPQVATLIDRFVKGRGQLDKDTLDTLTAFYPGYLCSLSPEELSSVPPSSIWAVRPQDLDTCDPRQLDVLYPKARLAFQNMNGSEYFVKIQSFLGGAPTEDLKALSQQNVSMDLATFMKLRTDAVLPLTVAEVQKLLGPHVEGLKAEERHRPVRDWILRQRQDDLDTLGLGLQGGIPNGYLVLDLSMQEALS
The test is described as above. Here is the method:
as §1

In a further test the target is T8, BCMA-His antigen (UniProt Q02223 1-54).
T8 construct: also called BMCA antigen
T8 sequence (looked up): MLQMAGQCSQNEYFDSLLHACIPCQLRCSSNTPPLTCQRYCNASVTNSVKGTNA
The test is described as follows: SPR, BCMA-his coupled on CM5 chip, TCP as analyte, 1:1 fit. Here is the method: First the binding affinity of the purified BCMA-TCPs against BMCA antigen was assessed by SPR. BCMA-his antigen was coupled onto a CM5 chip (GE Healthcare Life Sciences), and then a variety of anti-BCMA BsAbs were flowed at the flow rate of 10 uL/min with dissociation time of 900s. Binding kinetics were determined with a 1:1 fit model.

The target in a further test is T9, BCMA expressed on cells (UniProt Q02223 1-184, limits assumed).
T9 construct: whole, on cells; also called CHOK1-BCMA cell line; BCMA over-expression cell line
T9 sequence (looked up): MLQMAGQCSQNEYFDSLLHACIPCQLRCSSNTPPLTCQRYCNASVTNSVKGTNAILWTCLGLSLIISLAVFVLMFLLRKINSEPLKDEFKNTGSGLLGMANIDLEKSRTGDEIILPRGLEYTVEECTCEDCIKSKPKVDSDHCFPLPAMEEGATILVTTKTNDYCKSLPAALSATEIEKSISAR
The test is described as follows: flow cytometry on CHOK1-BCMA+ cells; unit taken from the axis 'Conc.(nM)'. On the procedure:
The binding bioactivity for mesothelin and BCMA over-expressing cells was evaluated by flow cytometry. Stable cell lines were harvested using 0.25% Trypsin.
About 5E5 cells were collected per sample, and the cells were resuspended in 100 μL/well tested antibodies with His-tag. Then the cells were incubated with anti-His-tag antibody (Genscript, China) and Streptavidin-PE (Biolegend, China). The incubation step of each step was performed at 4° C. in the dark for 1 hr, and then the cells were washed 2× with 200 μL PBS buffer. The washed cells were resuspended in 200 μL PBS buffer and the sample was analyzed by FACS.

For test [4], the target named is T1, MSLN-His antigen. The test is described as follows: SPR as in Example 2, MSLN His antigen.
The target of test [5] is mesothelin (MSLN) expressed on cells (UniProt Q13421). Nature of the test: flow cytometry on HEK293T-MSLN cells, serial dilution.

T2 sequence (Q13421 other isoform, or with tags, fused parts or gaps limits assumed): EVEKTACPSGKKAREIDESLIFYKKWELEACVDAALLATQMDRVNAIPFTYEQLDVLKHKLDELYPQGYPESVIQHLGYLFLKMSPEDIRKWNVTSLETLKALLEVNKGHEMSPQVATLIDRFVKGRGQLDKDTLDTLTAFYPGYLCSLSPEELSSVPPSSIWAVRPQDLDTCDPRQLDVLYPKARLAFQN
T5 sequence (Q13421 other isoform, or with tags, fused parts or gaps limits assumed): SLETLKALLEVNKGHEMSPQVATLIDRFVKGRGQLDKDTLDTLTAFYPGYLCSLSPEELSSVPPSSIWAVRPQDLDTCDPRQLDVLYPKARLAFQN
T3 sequence (Q13421 296-390 limits assumed): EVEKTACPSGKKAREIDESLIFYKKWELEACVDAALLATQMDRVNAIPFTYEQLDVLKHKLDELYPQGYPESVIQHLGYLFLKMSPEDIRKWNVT

B1: TCP-MD (VHH)
VHH: QLQLGASGGGLVQPGGSLRLSCALSGFTLRELDEFAIGWFRQAPGKEREGVSCISGTGGITHYADSVKGRFTISRDIAKTTVYLQMNSLNSEDTAVYYCAADERCTDRLIRPPTYWGQGTQVTVSS
As to B1, in test [1], the EC50 turned out to be 10.5 nM.

B2: M2339(VHH), expressed as a hFc fusion protein (Fc fusion)
chain: QLQLGASGGGLVQPGGSLRLSCALSGFTLRELDEFAIGWFRQAPGKEREGVSCISGTGGITHYADSVKGRFTISRDIAKTTVYLQMNSLNSEDTAVYYCAADERCTDRLIRPPTYWGQGTQVTVSS
notes: VHH fused to human Fc; also called M2339-hFc; M2339-IgG1; not shown: human Fc (hFc)
B2 yielded an EC50 (read off the curve) in test [2] of 4 nM. Further, in the test with MSLN-His antigen [3], binding was characterised by a dissociation constant (Kd) of 0.264 nM, the koff was 1.82e-05 s⁻¹ and the kon was determined as 69000 M⁻¹ s⁻¹.

B3: M2339 VHH-6his (VHH)
VHH: QLQLGASGGGLVQPGGSLRLSCALSGFTLRELDEFAIGWFRQAPGKEREGVSCISGTGGITHYADSVKGRFTISRDIAKTTVYLQMNSLNSEDTAVYYCAADERCTDRLIRPPTYWGQGTQVTVSS
notes: not shown: 6xHis tag
Turning to B3, the Kd stood at 0.366 nM with MSLN I + II - Fc; 0.179 nM with MSLN I - Fc; 0.0432 nM with MSLN II + III - Fc; 0.999 nM in the test with MSLN II - Fc; 0.327 nM in the test with MSLN III - Fc; 0.0165 nM with MSLN Full - Fc. The koff is 0.000174 s⁻¹ in the test with MSLN I + II - Fc; 6.49e-05 s⁻¹ in the test with MSLN I - Fc; 1.96e-05 s⁻¹ with MSLN II + III - Fc; 0.000244 s⁻¹ with MSLN II - Fc; 0.000185 s⁻¹ in the test with MSLN III - Fc; 1.36e-05 s⁻¹ with MSLN Full - Fc. Also, the kon was 476000 M⁻¹ s⁻¹ in the test with MSLN I + II - Fc; 363000 M⁻¹ s⁻¹ with MSLN I - Fc; 454000 M⁻¹ s⁻¹ in the test with MSLN II + III - Fc; 244000 M⁻¹ s⁻¹ in the test with MSLN II - Fc; 566000 M⁻¹ s⁻¹ in the test with MSLN III - Fc; 823000 M⁻¹ s⁻¹ in the test with MSLN Full - Fc.

B4: TCP001-C (bispecific antibody)
chain: QLQLGASGGGLVQPGGSLRLSCALSGFTLRELDEFAIGWFRQAPGKEREGVSCISGTGGITHYADSVKGRFTISRDIAKTTVYLQMNSLNSEDTAVYYCAADERCTDRLIRPPTYWGQGTQVTVSSGGGGSGGGGSGGGGSQVQLVESGGGLVQPGGSLRLSCAASGSITSIYAIGWYRQAPGKLRELVAAITTSGNTFYRDSVKGRFTISRDNAKNTVSLQMNSLKSEDTAVYDCNGAPWGDHAPLVVSWDQGTQVTVSSGGGGSEQKLISEEDLGGGGSHHHHHH
notes: also called BCMA-TCP
As for B4, in the test with BCMA-His antigen, the Kd stood at 0.587 nM, the koff came to 0.000518 s⁻¹ and the kon came to 882000 M⁻¹ s⁻¹. For the same molecule, in test [1], the EC50 worked out at 13.4 nM. Moreover, it took 17.6 nM to reach a half-maximal effect in the test with BCMA expressed on cells (EC50).

B5: TCP-MC (VHH)
VHH: QVQLVESGGGLVQPGGSLRLSCAASGSITSIYAIGWYRQAPGKLRELVAAITTSGNTFYRDSVKGRFTISRDNAKNTVSLQMNSLKSEDTAVYDCNGAPWGDHAPLVVSWDQGTQVTVSS
notes: also called MC001C
For the molecule B5, in the test with BCMA-His antigen, the Kd is 0.138 nM, the off-rate (koff) is 0.000546 s⁻¹ and the kon stood at 3.96e+06 M⁻¹ s⁻¹.

B6: anti-MSLN-1444 VHH (Fc fusion, not shown: a dimerising Fc or GST)
chain: QVQVVESGGGFVQAGGSLRLSCAASTPIISIAYMGWYRQISEKERQLVATINSGGKTYYADSVKGRFTISRDNAKNTLYLQMNMLKPEDTGMYYCAASNKDYNDYDPDWGQGTQVTVSS
For the molecule B6, in the test with MSLN-His antigen [4], binding was put at a Kd of 2.1 nM, the koff was determined as 7.5e-05 s⁻¹ and the kon was 53700 M⁻¹ s⁻¹. In [5], this molecule yielded an EC50 (read off the curve) of 10 nM.

B7: TCP001-P (bispecific antibody)
chain: QLQLGASGGGLVQPGGSLRLSCALSGFTLRELDEFAIGWFRQAPGKEREGVSCISGTGGITHYADSVKGRFTISRDIAKTTVYLQMNSLNSEDTAVYYCAADERCTDRLIRPPTYWGQGTQVTVSSGGGGSGGGGSGGGGSDIVLTQSPASLAMSLGERATISCRASESVSVIGAHLIHWYQQKPGQPPKLLIYLASNLETGVPARFSGSGSGTDFTLTISRVQAEDAAIYSCLQSRIFPRTFGQGTKLEIKGSTSGSGKPGSGEGSTKGQVQLVQSGSELKKPGESVKISCKASGYTFTDYSINWVKQAPGQGLKWMGWINTETREPAYAYDFRGRFVFSLDTSASTAYLQISSLKAEDTAVYFCALDYSYAMDYWGQGTLVTVSSGGGGSEQKLISEEDLGGGGSHHHHHH
notes: Positive control in TCP format
Consider B7, for which, in the test with BCMA-His antigen, the affinity, expressed as Kd, was 0.0151 nM; the koff is 1.25e-05 s⁻¹; the kon worked out at 825000 M⁻¹ s⁻¹.

B8: TCP003-C (bispecific antibody)
chain: QLQLGASGGGLVQPGGSLRLSCALSGFTLRELDEFAIGWFRQAPGKEREGVSCISGTGGITHYADSVKGRFTISRDIAKTTVYLQMNSLNSEDTAVYYCAADERCTDRLIRPPTYWGQGTQVTVSSGGGGSAAAGQPREPQVYTLPPSQEEMTKNQVSLTCLVKGFYPSDIAVEWESNGQPENNYKTTPPVLDSDGSFFLYSRLTVDKSRWQEGNVFSCSVMHEALHNHYTQKSLSLSLGKGGGGSGGGGSGGGGSQVQLVESGGGLVQPGGSLRLSCAASGSITSIYAIGWYRQAPGKLRELVAAITTSGNTFYRDSVKGRFTISRDNAKNTVSLQMNSLKSEDTAVYDCNGAPWGDHAPLVVSWDQGTQVTVSSGGGGSEQKLISEEDLGGGGSHHHHHH
notes: also called TCP0031-C (as misprinted); BCMA-TCP
As to B8, in the test with BCMA-His antigen, binding was characterised by a dissociation constant (Kd) of 7.04 nM, the koff was determined as 0.000298 s⁻¹ and the kon was 42300 M⁻¹ s⁻¹. For the same molecule, the EC50 in test [1] is 4.32 nM. This molecule displayed an EC50 with BCMA expressed on cells of 22.3 nM.
